Assay results published in patent US20030049729A1.

Biological target: plasminogen
Test: cell-based or functional assay

For “Bacteriophages which harbored K2S on gpIII (K2S-phi; printed with a garbled symbol as K2S-?) (from UniProt P00750 209-562)”, the fibrinogen-dependent enzymatic activity was under 0.25 IU/ml.
